According to the supplement of paper PMC10567573:

B1: TRIM55 (parent)
chain: FQASNPYLPTRGGTTMASGGRFRC

Variants of: B1
Assay: protein stability index of a GFP-peptide fusion (GPS, HEK-293T) (PSI 1-6); higher = more stable
Conditions: c terminus: a fixed tail appended
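Further: lentivirally expressed fusions sorted by FACS into six bins by GFP to DsRed ratio, PSI derived from sequencing read proportions per bin multiplied by bin number.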

Protein stability index: each site, then its substitutions
G12: N 1.62 | V 3.34 | I 2.77 | R 2.79 | Q 1.34 | S 2.61 | D 2.06 | A 1.63 | Y 1.81 | F 2.86 | P 1.55 | M 1.05 | C 2.23 | W 2.35 | T 2.13 | H 2.04 | L 2.67 | E 1.55
T15: N 2.3 | L 1.69 | S 1.69 | G 2.85 | A 2.24 | Y 1.73 | D 1.75 | P 1.52 | M 1.72 | V 2.54 | R 2.93 | Q 1.65 | I 1.88 | K 2.19 | W 1.75 | E 1.48 | H 1.18 | C 1.28 | F 1.57
S4: Q 1.86 | C 2.64 | N 1.72 | G 1.1 | T 2.81 | I 1.88 | K 1.85 | R 1.44 | P 1.8 | M 2.09 | Y 2.12 | D 1.24 | E 1.95 | F 2.57 | L 1.66 | A 2.11 | V 2.34
T14: Q 2.52 | M 2.32 | A 1.93 | L 2.34 | R 1.41 | V 1.54 | D 1.27 | F 1.5 | Y 1.5 | E 2.09 | I 2 | N 1.73 | W 1.32 | C 2.23 | S 2.11 | H 1.37 | P 2.47 | K 2.3 | G 1.67
G19: R 1.9 | D 2.06 | W 1.63 | E 1.71 | P 1.83 | L 2 | S 1.83 | H 2.48 | F 1.91 | K 2.39 | T 2.28 | V 2.07 | A 1.7 | Q 2.06 | C 2.9 | N 1.77 | M 1.49 | I 2.04 | Y 2.06
A3: Y 1.95 | T 1.54 | S 2.27 | V 2.28 | R 2.46 | W 2.95 | Q 2.84
R11: G 2.02 | F 2.01 | P 2.13 | D 2 | C 2.76 | E 2.29 | Q 1.8 | I 2.46 | S 2.02 | T 1.65 | W 2.68 | L 2.15 | V 1.89 | H 1.57 | N 1.86 | A 2.05 | Y 2.28 | M 2.11
G13: Q 2.68 | F 1.22 | S 1.75 | R 1.7 | M 2.65 | N 1.22 | A 1.68 | V 1.9 | H 2.32 | D 1.64 | T 1.65 | Y 1.51 | W 3.33 | P 1.7 | I 1.99 | K 2.74 | C 1.65 | L 3.49 | E 1.46
M16: G 2.5 | H 1.69 | R 1.86 | S 2.67 | W 1.42 | F 1.76 | V 1.27 | C 1.77 | E 1.12 | T 1.99 | Q 1.57 | I 2.83 | N 2.02 | P 2.92 | Y 1.98 | L 1.79 | A 1.57 | K 3.34 | D 1.65
Y7: C 3.15 | A 3.52 | T 3.27 | V 3.13 | F 2.43 | P 3.54 | K 2.91 | E 3.2 | H 3.36 | L 1.9 | R 3.25 | N 3.4 | G 3.29 | S 3.18 | M 2.68 | I 2.83 | Q 3.45 | D 3.76
L8: N 2 | H 1.56 | T 2.79 | E 3.39 | V 2.03 | D 2.55 | G 2.02 | C 3.09 | R 2.54 | M 1.26 | S 2.7 | F 1.63 | Y 1.59 | I 2.79 | K 1.14 | Q 2.22 | P 1.92 | A 1.81
A17: Y 2.11 | T 1.84 | S 2.14 | D 1.76 | K 1.79 | Q 2.02 | F 1.88 | L 2.54 | N 2.27 | I 1.08 | R 2.27 | W 1.76 | C 2.24 | E 2.52 | G 1.45 | P 1.76 | M 1.93 | V 3.21 | H 1.85
S18: A 1.97 | I 1.48 | M 2.51 | E 2.22 | T 2.23 | R 2.24 | N 2.19 | L 2.45 | G 2.35 | K 3.05 | H 1.57 | F 1.95 | Y 2.22 | P 1.79 | C 1.35 | Q 2.07 | V 1.21 | D 2.09
G20: D 1.72 | K 2.1 | W 2.07 | V 1.77 | E 1.97 | S 1.34 | T 1.71 | H 1.66 | M 3.49 | P 2.19 | R 1.96 | F 1.53 | A 2.62 | I 1.73 | C 1.6 | N 1.72 | L 2.24 | Y 1.63 | Q 1.68
P6: L 2.65 | I 1.85 | Q 2.48 | S 1.65 | D 2.07 | A 1.96 | C 3.1 | K 3.13 | W 1.93 | H 2.37 | G 2.06 | N 2.72 | V 3.02 | E 2.26 | T 1.93 | F 2.12 | Y 2.42
R21: A 1.18 | P 2.12 | F 1.71 | C 2.35 | M 1.81 | D 1.81 | I 1.42 | N 2.49 | H 1.68 | G 1.53 | K 3.08 | Q 1.85 | L 2.42 | E 2.18
N5: Q 2.33 | K 1.78 | F 3.23 | P 2.22 | I 2.51 | E 2.58 | W 2.49 | G 1.41 | H 3.58 | C 2.6 | L 2.04 | Y 2.14 | R 1.7 | S 3.55 | T 2 | V 2.1 | D 2.81 | A 2.65
P9: H 1.86 | R 2.1 | Q 1.72 | S 1.7 | G 1.63 | C 2.04 | A 1.14 | K 2.09 | E 2.17 | V 2.2 | M 1.83 | Y 1.88 | W 2.09 | T 1.73 | I 1.89 | N 1.85 | D 2.24 | L 2.65 | F 1.5
T10: L 2.4 | S 1.97 | Y 1.83 | Q 1.93 | P 2.37 | D 1.61 | E 2.99 | K 1.74 | F 2.19 | C 2.17 | V 2.16 | N 2.23 | H 2.17 | G 2.03 | R 1.56 | I 1.81 | W 2.81 | A 2.06 | M 3.72
